Laboratory results taken from patent US8404652B2, “DNA-binding protein YB-1-containing collagen accumulation inhibitors” (Sumitomo Chemical Company, Limited, priority 2000, dated 2013).

Tests used:
Type in all cases: cell-based
[1] = system: promoter region of the human type-I collagen α2 strand gene (binding reporter vector); test: CAT reporter assay of test substances, binding reporter vector-transduced fibroblast
Experimental: (§1) 2 ml of an angelica extract [ICHIMARU-PHARCOS, PHARCOLEX (trade mark of ICHIMARU-PHARCOS), angelica] and 2 ml of a basswood extract [ICHIMARU-PHARCOS, PHARCOLEX (trade mark of ICHIMARU-PHARCOS), linden] were freeze-dried and each was combined with 1 ml of dimethyl sulfoxide (hereinafter referred to as DMSO) per 50 mg of the freeze-dried material, whereby obtaining an angelica extract sample and a linden extract sample.
(§2) A normal human fetal dermal fibroblast was inoculated in a population of 1×10^6 cells in a 60-mm dish and incubated in D-MEM (+) overnight at 37° C. under 5% CO2 atmosphere, and then the culture medium was replaced with D-MEM (−). On the other hand, 100 μl of D-MEM (−) was combined with either of 2 μg of the binding reporter vector DNA or 2 μg of the non-binding reporter vector DNA obtained in Example 2 (3), and the mixture was allowed to stand at room temperature for 40 minutes (Solution 1). To 100 μl of MEM(−), 4.5 μl of Lipofectine (Gibco, Catalog No.18292-011) was added and the mixture was allowed to stand at room temperature for 40 minutes (Solution 2). Then Solution 1 and Solution 2 were mixed and allowed to stand at room temperature for 10 minutes, and then combined with 2 ml of D-MEM (−) and mixed. This mixture was added to the normal human fetal fibroblast described above, which was then incubated at 37° C. under 5% CO2 atmosphere for 6 hours. […]

[2] = system: DNA-binding protein of invention (YB-1) fused with GFP (pCMX-YB-1-GFP); test: Fluorescent microscope examination of migration of YB-1-GFP into the nucleus; conditions: human fibroblast transduced with pCMX-YB-1-GFP; 4 hours contact; IFN-γ 100 U/ml as positive control
Experimental: 100 ng of YB-1/RSV, 10 pmol of an oligonucleotide consisting of the nucleotide sequence represented by SEQ ID NO:.15, 10 pmol of an oligonucleotide consisting of the nucleotide sequence represented by SEQ ID NO:.16, 5 μl of the buffer included in KOD-Dash (TOYOBO, Catalog No.RR002A), 5 μl of Mg^2+ solution, 5 μl of dNTP mixture, 1 μl of KOD-Dash and distilled water were mixed to prepare 50 μl in total of a PCR solution, which was used to perform a PCR. The condition of the PCR involved an incubation at 94° C. for 2 minutes, followed by 35 cycles, each cycle involving the incubations at 94° C. for 15 seconds, 60° C. for 30 seconds and then 68° C. for 1 minute. After the PCR, the PCR solution was digested with HindIII and Pm1I and subjected to an ethanol precipitation to recover a DNA (hereinafter a DNA obtained as a residue is referred to as a YB-1DNA.). […] The nucleotide sequence of the plasmid DNA thus obtained was analyzed, and a plasmid having a nucleotide sequence in which a GFP amino acid sequence was encoded downstream of the amino acid sequence of the DNA-binding protein of the present invention with its reading flame being continued was selected. […]

[3] = system: human type-I collagen α2 strand mRNA; test: Type-I collagen α2 strand mRNA quantity (northern blotting) with test substances; conditions: extract 50 μg lyophilized sample per ml, INF-γ 100 U/ml
Experimental: A normal human fetal dermal fibroblast was inoculated in a population of […] in a 100-mm dish and incubated in D-MEM (+) overnight at 37° C. under 5% CO2 atmosphere. This cell was supplemented with the angelica extract sample prepared in Example 7 (2) at 50 μg lyophilized sample per ml medium and incubated further for 24 hours. In a case of negative control, the angelica extract sample was replaced with DMSO (added at 0.1% in the medium).
In a case of positive control, the angelica extract sample was replaced with INF-γ (added at 100 U/ml in the medium). The cell thus incubated was washed twice with a PBS, and used to prepare a total RNA similarly to Example 1 (1). […] The radioactivity of the air-dried filter was determined using BAStation.
On the other hand, 10 μg of the total RNA was subjected to an electrophoresis on the gel described above which contained 0.5 μg/ml of ethidium bromide (Gibco BRL, Catalog No.15582-018) and the fluorescent intensity of 28S ribosome RNA was quantified using Luminescent Image Analyzer LAS-1000 plus (FUJI FILM) and Image Gauge Ver 3.12 (FUJI FILM). The quantity of the type-I collagen α2 strand mRNA relative to the 28S ribosome RNA was calculated in accordance with the following equation. Type-I collagen α2 strand mRNA quantity=Radioactivity of band of about 5.8 kb/fluorescent intensity of 28S ribosome RNA […]

[4] = system: non-binding reporter vector; test: CAT reporter assay of test substances, non-binding reporter vector-transduced fibroblast; conditions: normal human fetal dermal fibroblast; sample 1 μg freeze dried material/ml, IFN-γ 100 U/ml; 40 hours; negative control of binding reporter cell = 1.0
Experimental: as §1, §2

Molecule	relative CAT activity ([1]; binding reporter vector-transduced normal human fetal dermal fibroblast, 8 μM in medium, methanol negative control = 1.0)	localisation of YB-1-GFP fluorescence (cytoplasmic / intranuclear) [2]	Relative CAT activity, binding reporter vector-transduced cell ([1]; normal human fetal dermal fibroblast, sample 1 μg freeze dried material/ml, IFN-γ 100 U/ml, 40 hours, negative control = 1.0)	Relative transcription level of type-I collagen gene (α2 strand mRNA level) ([3]; Table 5, TGFβ column prints Absent (method: TGFβ 10 ng/ml), negative control with TGFβ = 1.0)	Relative transcription level of type-I collagen gene (α2 strand mRNA level) ([3]; normal human fetal dermal fibroblast, TGFβ absent, 24 hours, negative control = 1.0)	Relative CAT activity, non-binding reporter vector-transduced cell [4]
CC(O)C(O)/C=C/C=C\CC/C=C/C(=O)NCC(C)(C)O (stereo not drawn) [Compound A]	0.7	–	–	–	–	–
Positive control: interferon-γ (Roche) added at 100 U/ml in the medium (protein, UniProt P01579 24-161, looked up) Interferon gamma: QDPYVKEAENLKKYFNAGHSDVADNGTLFLGILKNWKEESDRKIMQSQIVSFYFKLFKNFKDDQSIQKSVETIKEDMNVKFFNSNKKKRDDFEKLTNYSVTDLNVQRKAIHELIQVMAELSPAAKTGKRKRSQMLFRG	–	no cytoplasmic fluorescence	0.6	0.5	0.5	0.9
